assay: yeast display, Sf9 membrane polyspecificity reagent, FACS + sequencing; frameworks hold sequencing errors
In short: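 Nanobodies came from a synthetic yeast display library in Saccharomyces cerevisiae BJ5465, induced with galactose for 36–48 hours and stained for 1 hour at 4 °C with 10% biotinylated, detergent-solubilized Sf9 membrane reagent. Cells were enriched on streptavidin microbeads and then FACS-sorted, with low and high (top ~1%) gates set on anti-HA fluorescence for expression and streptavidin fluorescence for reagent binding. Each polyreactivity label reflects the gate a clone came from. Genes were amplified by colony PCR, sequenced by MiSeq 2 × 250 and filtered by CDR length.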

Sequence	polyreactivity (PSR sort gate)
QVQLVESGGGLVQAGGSLRLSCAASGFIFAPNAMGWYRQAPGKERELVAAISHSGASTFYADSVKGRFTISRDYAKNTVYLQMNSLKPEDTAVYYCGAPPYYSYDYWRQGTQVTVSS	low polyreactivity
QVQLVESGGGLVQAGGSLRLSCAASGITFLYYAMGRYRPAPGKERELVAAITGDGSTTYADSVKGRFTISRDNAKNTVYLQMNSLKPEDTAGYYCAADDQYYGDGFWGQGTQLTVSS	high polyreactivity
QVQLVESGGGLVQAGGSLRLSCAASGLIFPYYAMGWYRQAPGKERELVAAISYRGSRTYYADSVKGRFTISRDNAKNTVYLQMNSLKPEDTAVYYCIAGVSGRDNYWGQGTQVNVSS	high polyreactivity
QVQLVESGGGLVQAGGSLRLSCAASGRTLNDYTMGWYRQAPGKERELVAAISSSGVRTYYADSVKGRFTISRDNAKNTVYLQMNSLKPEDTAVYYAKRAGYDRRWNYDYWGQGTQVTVSS	high polyreactivity
QVQLVESGGGLVQAGGSLRLSCAASGSIFRANAMGWYRQAPGKERELVAAISRRGGNTYYADSVKGRFTISRDNAKNTVYLQMNSLKPEDTAVYYCAADRSEYDYWGQGTQVTVSS	high polyreactivity
QVQLVESGGGLVQAGGSLRLSCAASGSTFPINAMGWYRQAPGTERELVAAIDTNTASTYYADSVKGRFTISRDNAKNTVYLQMNSLKPEDTAVYYCAAEEWFYDGNVIYDWGQGTQVTVSS	high polyreactivity
QVQLVESGGGLVQAGGSLRLSCAASGGTFSPYYMGWYRQAPGKEREFVASITGSGGSTYYADSVKGRFTISRGNAKNTVYVQMNSLKPEDTAVYYCAAQCYWTYWPYLLRLYDYWGQGTQVTVSS	low polyreactivity
QVQLVESGGGLGQAGGSLRLSCAASGNTFWAYAMGWYRQAPGKERELVAGISSRGSRTYFADSVKGRFTISRDNAKNTVYLQMNSLKPEDSAVDFCNALRTPPGYYPPFDYWGEGTQVTVSS	high polyreactivity
QVQHVESGGGLVQAGGSRRLSCAASGRTFREYAMGWYRQAPGKERELVAAISDSGDSTYYADSVKGRFTISRDNAKNTVNLQMNSLKPVHTAVYYCAADYYDYEYDYWGQGTQVTVSS	low polyreactivity
QVQLVESGGGLVQAGGSLRLSCAASGSTFRVNGMGWYRQAPGKERELVAVISWSGGSTYYADSVKGRFTISRDNAKNSVYLQMNSLKPEDTAVYYCAAKVKAGAGYHYDYYWGQGTQVTVSS	high polyreactivity
QVQLVESGGGLVQAGGSLRLSCAASGGTFWYYAMGWYRQAPGKERELVASISRGGSTNYADSVKGRFTISRDNAKNTVYLQMNSLKPEDTAVYYCNAGLRVGPRRYVDYEYDYWGQGTQVTVSS	low polyreactivity
QVQLVESGGGLVQAGGSLRLSCAASGSTFKWYGMGWYRQAPGKERELVATINYSSSTTYYADSVKGRFTISRDNAKNTVYLQMNSLKPEDTAVYYCAKGVYWGTKSTYDYWGQGTQVTVSS	high polyreactivity
QVQLVESGGGLVQAGGSLRLSCADSGRILTFNAMGWYRQAPGKERELVASISNGGSTNYADSVKGRFTISRDNAKNTVYLQMNSLKPEDTAVYYCDADWRQGMWYGYYYWGQGTQVTVSS	low polyreactivity
QVQHVESGGGLVQAGGSLRLSCAASGSTFHDYAMAWYRQATGKEREFVAAIRWRGGSTYYADSVKGRFTISRDNAKNTVYLQMNSLKPEDTAVYYCAADYLQFRKYVVHFDYLGQGTQVTVSS	low polyreactivity
QVQLVESGGGLVQAGGSLRLSCAASGSTFSFYAMGRYRQAPGKERELVAAISSSGDGTYYADSVKGRFTISRDNAKKTVYLQMNSLKPEDTAVYYCATGSPSGDEWGMDYWGQGTQVTVSS	low polyreactivity
QVQLVESGGALVQAGGSLRLSCAASGRTLGGYAMGWYRQAPGKERELVAAITRRGGTTYYADSVKGRFTISRDNAKNTVYLQMNSLKPEDTAVYYCAKYTVQYAISHYDYWGQGTQVTVSS	high polyreactivity

Sequence	polyreactivity (PSR sort gate)
QVQLVESGGGLVQAGGSLRLSCAASGIIFIIYTMGWYRQSPGKERELVAAISWSGGSTYYADSVKGRFTISRDNAKNTVYLQMNSLKPEDTAVYYCAADVANWYGGGNSDYDHEYWGQGPQVTVSS	low polyreactivity
QVQLVESGGGLVQAGGSLRLSCAASGRTFGRNAMGWYRQAPGKERELVAAISSSGTRTYYADSVKGRFTISRDNAKNTVYLQMNSLKPEDTAVYYCAVDTLRYKMDYWGQGTQVTVSS	low polyreactivity
QVQLVESGGRLVQAGGSLRLSCSASGLTFTNYAMGSYRQAPGKERELVAAISNSGATTYYADSVKGRFTISRDNAKNTVYVQLKSLKPEDTAVYYCAATSYTATWRYYYWGQGTQVTVSS	high polyreactivity
QDQLVESGGGLVQSGGSLLLSCAPSGSMFSFYAMGCYRQAPGKEMELVAAITRGGATTNFADSVKGRFTISRDNAKNTVYLQMNSLKPEDTAVYYCAARTPNVNAVWMDYWGQGTQVTVSS	high polyreactivity
QVQLVESGGGLVQAGGSLRLSCAASGRIFLLNPMGWNRQATGKERELVARNSSGRTYYADSVKGRFTISRVNAKNTVYLHMKSLKPEDTAVYYCNATVSSSKYRYFYVNPYDYWGQGTQVTVSS	low polyreactivity
QVQLVESGGGLVQAGGSLRLSCAASGIIFLGNAMGWYRQAPGKERELVAAITASGTSTYYADSVKGRFTISRDNAKNTVYLQMNSLKPEDTAVYYCAAQSTWYDYYYWGQGTQVTVSS	low polyreactivity
QVQLVESGGGLVQAGGSLRLSWAASGSSFFRNAMGGYSQAPGKERELVASISRSGGSTYYADSVKGRFTISRDNAKNTVYLQMNSLKPEDTAVSYCAKKPNTQTSYWYYYWGQGTQVTVST	high polyreactivity
QVQLVESGGGLVQAGGSLRLSCAASGRIFYYYAMGWYRQAPGKERELVAAISWSGVNTYYADSVKGRFTISRDNAKNTVYLQMNSLKPEDTAVYYCAAGFAYKYSKGFWSDYWGQGTQVTVSS	high polyreactivity
QVQLVETGGGVVQAGGSLRLSCAASGRTFGFNAMGWYIQAPGKERELVASITSTGGRTYYADSVKGLFTISRDNAKNTVYLQMNCLKPEDTAVYYCAAGSRSRAPYYRTIVDTYGYWGQGTQVTVSS	low polyreactivity
QVQLVESAGGLVQAGGSLRLSCAASGLTFYRYAMGWYRQAPGKERELVAAISSADRTYYADSVKGRFTISRDNAKNTVYLQMNSLKPEDTAVYYCNARGIGRSTKWSSRDYWGQGTQVTVSS	high polyreactivity
QVQLVESGGGLVQAGGSLRLSCAASGRTFPPYAMGWYRQGPGKERELVASIRRGGSTHYADSVKRRFTISRDNAKNTVYLQMNSLQPEDTAVYYCAAYYGGWSTYGAGYGGFYYWGQGTQVTVSS	high polyreactivity
QVQLVESGGGLVQAGGSLRLSCAASGFIFSNNAMGWYRQAHGKERELVAAISKSGGGTSYADSVKGRFTISRDNAKNTVYFQMNSLKPEDSAVYYCAARFRQFRVDYWGQGTQVTVSS	high polyreactivity
QVQLVESGGGLVQAGGSLRLSCAASGRIFPYYAMGWYRQAPGKERELVATITSGGSTYYADSVKGRFTISRDNAKNTVYLQMNSLKPEDTAVYYCAARYPSIYFYRYDYWGQGNQVTVSS	high polyreactivity
QVQLVESGGGLVQAGGRLLLSCAASGFTFPRYVMGWYRQAPGKEREFVAAITFSGGSTYYADSVKGRFTISRDNAKNSVYLQMNSLKPEDTAVYYCAAGASLWRLGLKMGYWGQGTQVTVSS	low polyreactivity
QVQLVESGGGLVQAGGSLRLSCAASGRTFYGYAMGWYRQAPGKERELVAVITRDGSTNYADSVKGRFTISRDNAKNTVYLQMNSLKPEDTAVYYCAAERLAYRVRWRYNQEDYWGQGTQVTVSS	high polyreactivity

Reference: the nanobody polyreactivity screen of Harvey et al. (2022)
